Data: paper PMC5859253

Experiments:
Assay in all cases: EMSA
Settings in all cases: HilD/H-NS EMSA: 10 mM Tris-HCl pH 8, 50 mM KCl, 1 mM DTT, 0.5 mM EDTA, 5% glycerol, 10 ug/ml BSA, ~100 ng DNA, RT 20 min; PhoP EMSA: 20 mM Tris-HCl pH 7.4 …
PhoP-H6 (phosphorylated) = system: PhoP-H6 (phosphorylated)
[1] = system: MBP-HilD (Salmonella enterica serovar Typhimurium SL1344?)
[2] = system: H-NS-FH (H-NS-3XFLAG-6XHis) (Escherichia coli EPEC E2348/69)

| Substance | binding (PhoP-H6 (phosphorylated)) | binding [1] | binding [2] |
| --- | --- | --- | --- |
| ges promoter | > 6 µM | – | – |
| grhD1 promoter (PhoP EMSA) | 3 µM | – | – |
| grhD1 upstream region (HilD/H-NS EMSA) | – | > 1 µM | 0.5 µM |
| orgB promoter | 3 µM | – | – |
| sigD regulatory region | – | > 1 µM | > 1 µM |
| ssrAB regulatory region | – | – | 0.25 µM |
